In a protein production outcome set (Wang et al. 2014) one finds protein production data, which are given here for 28 sequences.

This data set in a line: label from the status in PepcDB records.
In the case of “QYRLRQLPEVSGAMVVMDPLTGRVLAMVGGFSFDQSQFNRATQAYRQPGSSFKPLVYSAAMDNGYTPSTVVIDAPIEIDQGQGVGVWRPENYSTGKYYGPTTLRNALQRSLNTVTVRLAQDIGMPLIGEYAKRFGVYDDLPNYLSYALGAGETTVMRMVTAYSMFANGGRRVKATLIDRIQDRYGHTIFKHDQRECRGCEAPNGWKNQPEPQLVDRREQVLDPMTAYQITSMMEGVVQAGTATVLREVGKPIAGKTGTTNDEKDAWFIGFSPDLVCGVYIGYDKPRNLGRGATGGHLAAPIAKDFFKLALAEKPAVPF”, the protein production entry is on record as “failed”.
Next, “RAAAALAAGALALSLTACGGDEDNGGGDGGDEGGGAKQPASSVTLPKLDGESLEVAAVWTGTEQENFKKVLAEFEKRTGAKVTFVPAQDPIINFLGSKIAGGAPPDVAMLPQPGAIKQAVDKGWAKPLGAEATKELGENYSQGWQDIGKVGGKQYGVYYKAANKSLIWYNAQVFENAGAAEPKTWDELLNAAQMVYDSGVTPFSVGGADGWTLTDWFENVYLSQAGPEKYDQLAKHEIKWTDPSVKDALTTLAEIWGKKDFVAGGASGALQTEFPASVTQTFTGGDQPKAGMVYEGDFVQVNIGETKAKVGTDAKVFPFPAVGDTAPVVSGGDAAVVFKDSKAAQALATWLASPDAAGIQAKLGGFLSPNKSIDSSVYPNEVQKKIAEALVAAGDDFRFDMSDQAPQAFGGTPGKGEWKTLQDFLKNPKDVAGAQAKLEADAAAAYG”: “failed”; “RAKAFIDAANQYSINELYLISHALLETGNGTSALANGLTYNGKTVYNMYGIGAYDSNPNYYGAKYAYEQGWFTPEAAIIGGAKFIGSSYIHNTAYNQDTLYKMRWSATATHQYATDIGWAYKQVNRMYSLYSLLDG”: “not failed”.
For the sequence “RATPSGMLRINASVQAGRAVAPLVLAFLRRYPEMRVDLVTEGRLLDIVAEGFDMGIRPADLVPRDMIALPLGLPVRHAVVASPDWLVRHPEPRSPADLDPDACLRVRLPNGALLRWPFQKDGVPLPFEASGRLTVDEAAIAR”, the protein production entry is reported as “failed”.
The result for “RDEVAGILRLGLSQSFGTMHIIPAIDKLRNQYPDLQVEVRLFDHQADMLKDGLDLWVTNFEDLPEGYVAQRLADSNFVLAASPDYLIDKKVPHHPLDLVEHNCLTYQ” reads “failed”; that for “REVPRCLADLGNGSVHGYRAGRVLSDSGPTGRVGEELMRSFASFFVRTASVPVAELPARPEGWPRDGDTQGFLDWLVHFTERRVHRPNRDRFGALFDAVGVPEDAMARFAAGHRCRAVRPFRLLHTDVHRANVVVRGRRLAVIDWELAILGDPLHDLATHLVRMAYGKEEQGRMVDLWAEAMADAGFTDLTAGLHEDLPVYVAFEYAQSVFPDVMRAAIDLPQ”, “failed”; that for “RFHNDGEALLAAFLAGDLAGIGAMTPEPAALEPARRLRRFYVRPDMRRRGVATALASALIHEGFDSVRLLTVNARAADAAAPFWEAQGFEPDTIGPWTH”, “failed”.
With “RHDFSDQTAMLELFSQLFGPYPFDQYSVVVTEDDLEIPLEAQGLSIFGANHAGGTKQWERLIAHELAHQWFGNSLGLAQWDDIWLNEGFACYAE”, the protein production entry was “failed”.
Take “RHQVESSPLFRALALRCNQTMVTLRSANMFHAYGFLAKVFEILAKHKISVDLITTSEISVSLTLDQTDTSGGAPQLPQAAREELEELCKVEVEHDLCLVALIGNKMSERKGYAKQVFGTLEDLNLRMICYGASPHNLCFLVNESVAKQAIQKLHTELFEQ”: the protein production result is “not failed”.
The result for “RIGIVVAAHGNSTASSMVQVVSQLLNVDNLKAVDMPLDMPPKEALRKIVEAVGEVNEENGVLLLVDMGSLSTFSEEIVRQTGIDVRTVDMVTTPIVLEAARKTALIDTQLETLHESLKNFHGYADIRQSETKQ” reads “not failed”; that for “RPFMQKRAQKALPHVSTGADALVGRKVLVTETIDPTTDKGRVAVDGDVWTARSLTGEVIEKGMRVEIVSYESIVLNVVVLGNDKQ”, “not failed”; that for “RRLNDELLGKVVSVVSATERTEWYPALVISPSCNDDITVKKDQCLVRSFIDSKFYSIARKDIKEVDILNLPESELSTKPGLQKASIFLKTRVVPDNWKM”, “failed”.
“RSRTKLLLLTVIPLIVITALVMAVNYQSGLSTLQKELENYRTDLIDAKKKELQAYLMMGVTAVKPLYESDKAGENQAQAKQILKAMRFDSDGYFFAYDSQGVNTLHAIKPELEGKNLYGMKD”: the protein production entry is reported as “failed”.
As to “RSSYVLPDKFVLSVPIQGNLDEVHSLSSSLPLLSSAEPLSFQDLLFLFDHAAGDKRIGSILLEIGGVHANPAKLTELRYSIEKMKASGKKVVAFLRSAEDSDYLLATACDSIVVEEGGFLMLDGLKAETLFYTKSLNKIGITFQASQWKTYKSGIEPFVRTGASSEYLEQIGELLDDVYDDYLGYASKRRGISRDSLQAVIDNMALLSAKKAVQLGLADGIASSWA”, the protein production result is reported as “failed”.
Take “RTEVVAVALDTSLEELKGRFVESGISKIIVYDGNIDNVVGYIHSSEMFRSPKDWRNHVKEVPIVPETMAAHKLMKLFMQQKKTIAVVVDEFGGTSGIVSLEDLVEEIFGDIEDEHDNTSYICKQIGE”: the protein production result was “not failed”.
Next, “RTRHLFEMTRELSRALTLEEVVRTSYHFLSSAFDAKVCLLMPNHHGELTPYNAEGMGQLPIDSGIARWCWDKDQIAGAGTDTLPSVPYQLHPISASQQVLAILAIEPNNLRQVLIPEQQQLLQTFNGLIANALERLQQAEMAEQSRINIEREQ”: “not failed”; “SAAKALKDLKNLPVSERNIDYKTKLLVGKMNGTAEDKPPQNSVPFDHNHPKGDEIEKPEAERVIVEIEYIESKDLNNVTQVDAVLKSLVTELDSKDWVLVCDALNTIRRLSIFHKEEMLHMLEKVILFIVKSLKNPRSAVSKTACMTSADIFSSYNDHTIDQLDLLLTQLLLKSSQDKRFVCEAAEKALVAMTAHVSPALLLPKLQPFLKNRNPRIRAKASTCFSRCVPRLGIEGIREYGIEKLVQAASSQLSDQLPESREAARAVLLELQTVYKKTTNVEPKEEHPEPVTWQIFCQSNLSPLSAQAVIRVTNVAGVAREGLVAGS”: “failed”.
“SAALAGVFVWDEERIQEEELQRSINEMKRLEEMSNMFQSSGVQHHPPEPKAQTEGNEDSEGKEQRWEMVMDKKHFKLWRRPITGTHLYQYRVFGTYTDVTPRQFFNVQLDTEYRKKWDALVIKLEVIERDVVSGSEVLHWVTHFPYPMYSRDYVYVRRYSVDQENNMMVLVSRAVEHPSVPESPEFVRVRSYESQMVIRPHKSFDENGFDYLLTYSDNPQTVFPRYCVSWMVSSGMPDFLEKLHMATLKAKNMEIKVKDYISAKPLEMSSEAKATSQSSERKNEGSCGPARIEYA”: the protein production entry is on record as “not failed”.
The result for “SAESWLRLSGAGPAEEAGPEGGLEEPDALDDSLTSLQWLQEFSILNAKAPALPPGGTDPHGYHQVPGSAAPGSPLAADPACLGQPHTPGKPTSSCTSRSAPPGLQAPPPDDVDYATNPHVKPPYSYATLICMAMQASKATKITLSAIYKWITDNFCYFRHADPTWQNSIRHNLSLNKCFIKVPREKDEPGKGGFWRIDPQYAERLLSGAFKKRRLPPVHIHPAFARQAAQEPSAVPRAGPLTVNTEAQQLLREFEEATGEAGWGAGEGRLGHKRKQPLPKRVAKVPRPPSTLLPTPEEQGELEPLKGNFDWEAIFDAGTLGGELGALEALELSPPLSPASHVDVDLTIHGRHIDCPATWGPSVEQAADSLDFDETFLATSFLQHPWDESGSGCLPPEPLFEAGDATLASDLQDWASVGAFL” reads “failed”.
The result for “SAKTDKLAQFLDSGIYESDEFNWFFLDTVRITNRSYTRFKVSPSAYYSRFFNSKQLNQHSSESNPKKRKRKQKNSSFHLPSVGEQASNLRHQEARLFLSKAHESFLKEIELLSLTKGLSDDNDDDDSSLLNKCCDDEVSFIELGGVWQAPFYEITLSFNLHCDNEGESCNEQRVFQVFNNLVVNEIGEEVEAEFSNRRYIMPRNSCFYMSDLHHIRNLVPEKISHYHIGRRCNSLIDVIYAAKSEEGYNLIVIDPPWENASAHQKSKYPTLPNQYFLSLPIKQLAHAEGALVALWVTNREKLLSFVEKELFPAWGIKYVATMYWLKVKPDGTLICDLDLVHHKPYEYLLLGYHFTELAGSEKRSDFKLLDKNQIIMSIPGDFSRKPPIGDILLKHTPGSQPARCLELFAREMAAGWTSWGNEPLHFQDSRYFLKV” reads “failed”; that for “SALIAALSVSGLPSNRFTFEGFLPAKPTARRDRLTHLAHEPRTLIFYEASHRIAECLTDLATIFGSMRIAVVARELTKIFETVLDGTLATLQTQVANDENQRKGEFVIIVQGAADQ”, “failed”; that for “SALTAALSVCPLPSSSFFFAGFLPHKKGRKSRLEFLASIDSTIVLYESPHRIGRLMEEVKEHFPDAQVFAAREITKMHEEYVTGTPDELANHFTGQKQRGEFVVVVHPPDKH”, “failed”.
“SALTLLEDWCKGMDMDPRKALLIVGIPMECSEVEIQDTVKAGLQPLCAYRVLGRMFRREDNAKAVFIELADTVNYTTLPSHIPGKGGSWEVVVKPRNPDDEFLSRLNYFLKDEGRSMTDVARALGCCSLPAESLDAEVMPQVRSPPLEPPKESMWYRKLKVFSGTASPSPGEETFEDWLEQVTEIMPIWQVSEVEKRRRLLESLRGPALSIMRVLQANNDSITVEQCLDALKQIFGDKEDFGASQFRFLQTSPKIGEKVSTFLLRLEPLLQKAVHKSPLSVRSTDMIRLKHLLARVAMTPALRGKLELLDQRGCPPNFLELMKLIRDEEEWENTEAVMKNKEKPSGRGRGASGRQARAEASVSAPQATVQARSFSDSSPQTIQGGLPPLVKRRRLLGSESTRGEDHGQATYPKAENQTPGREGPQAAGEELGNEAGAGAMSHPKPWET”: the protein production result is recorded as “not failed”.
Next, “SANSGCKDVTGPDEESFLYFAYGSNLLTERIHLRNPSAAFFCVARLQDFKLDFGNSQGKTSQTWHGGIATIFQSPGDEVWGVVWKMNKSNLNSLDEQEGVKSGMYVVIEVKVATQEGKEITCRSYLMTNYESAPPSPQYKKIICMGAKENGLPLEYQEKLKAIEPNDYTGKVSEEIEDIIKKGETQTL”: “not failed”; “SAQEKMELDLELPPGTGGSPAEGGGSGGGGGLRRSNSAPLIHGLSDTSPVFQAEAPSARRNSTTFPSRHGLLLPASPVRMHSSRLHQIKQEEGMDLINRETVHEREVQTAMQISHSWEESFSLSDNDVEKSASPKRIDFIPVSPAPSPTRGIGKQCFSPSLQSFVSSNGLPPSPIPSPTTRFTTRRSQSPINCIRPSVLGPLKRKCEMETEYQPKRFFQGITNMLSSDVAQLSDPGVCVSSDTLDGNSSSAGSSCNSPAKVSTTTDSPVSPAQAASPFIPLDELSSK”: “not failed”; “SASLPIRHLTPRDLTACADLSEDRGWPREEHKWGLLLAAGKGYGIDDPEGGLVSACVVTEYGPQDRPDLGAIGMVLVAERHARQGIGRRLMRHVMAEMATTPLTLCATPFGRPLYEELGFKVVGHSEMVRGYFAP”: “failed”.
Regarding “SASYLILRNYRNSIEGLIEKGIRDEEFIPYYQPIVDSRTQEVVGYEVLLRWQKGHQLVPPSLFISAAEDSGLVVKITNQLIQQVHRDLAQIPAPRWVSINVVADHLEQHHLTHLLEELHWPYSERLKFELTERVPIKAMTQAQEEVFYLLKKGYQFKIDDFGTGYGGFAYLQNLQISSIKIDKMFVDTINTHDVKISVLDSIIASAQGGNIEVIAEGVEHQYQVDYLAERNVFWIQGYFYAKP”, the protein production result is “failed”.
Regarding “SCNETGMLERLPLCGKAFADMMGKVDVWKWCNLSEFIVYYESFTNCTEMEANVVGCYWPNPLAQGFITGIHRQFFSNCTVDRVHLEDPPDEVLIPLIVIPVVLTVAMAGLVVWRSKRTDTLL”, the protein production result is “not failed”.
